Measured values taken from patent US20040076995A1, “Nurr1 transcription factor 1-box mutants having monomeric transcriptional activation activity” (priority 2001, published 2004).
Changes are numbered by the printed parent chain. In names and notes the source's numbering stands.

Legend:
Nurr1 P560A = Nurr1 P560A (Mus musculus, UniProt Q06219 Q06219:1-598, P560A); experiment: EMSA; monomeric DNA binding not influenced; betaRE is the only probe described; conditions: label: 32P (Klenow fill-in)
Experimental: (§1) The DNA-binding experiments were carried out as described by Castro et al. 1999. Briefly, Nurr1 and RXR proteins for gel mobility shift assays were produced by coupled in vitro transcription and translation in reticulocyte lysates according to the manufacturer's instructions (TNT Quick Coupled Trans cription/Translation System™; Promega). The proteins were incubated in a binding buffer containing 10 mM Tris (pH 8.0), 40 mM KCI, 0.05% NP-40, 6% glycerol, 1 mM DTT, 0.2mg poly(dI-dC) and protease inhibitors. βRE-probe (agcttaagg[…]ctcgcat; SEQ ID NO:9) was labelled with ³²P by fill-in reaction using Klenow fragment. After addition of the probe, the reactions were incubated on ice for 20 min. Protein-DNA complexes were resolved by electrophoresis on 4% non-denaturating polyacrylamide gel in 0.5×TBE. After electrophoresis, the gels were dried for autoradiography.

Nurr1 KLL(554-556)AAA = Nurr1 KLL(554-556)AAA (Mus musculus, UniProt Q06219 Q06219:1-598, K554A,L555A,L556A); experiment: as above; conditions: label: 32P (Klenow fill-in)
Experimental: as §1

Nurr1 PEL(560-562)AAA = Nurr1 PEL(560-562)AAA (Mus musculus, UniProt Q06219 Q06219:1-598, P560A,E561A,L562A); experiment: as above; conditions: label: 32P (Klenow fill-in)
Experimental: as §1

Nurr1 GKL(557-559)AAA = Nurr1 GKL(557-559)AAA (Mus musculus, UniProt Q06219 Q06219:1-598, G557A,K558A,L559A); experiment: as above; conditions: label: 32P (Klenow fill-in)
Experimental: as §1

[1] = biological target: Nurr1 PEL(560-562)AAA + RXR (Mus musculus / Homo sapiens?, UniProt Q06219;P19793 Q06219:1-598,P19793:1-462, Nurr1 P560A,E561A,L562A); experiment: EMSA; no heterodimer on DNA; monomeric binding retained; conditions: label: 32P (Klenow fill-in)
Experimental: as §1

Nurr1 P560A + RXR = Nurr1 P560A + RXR (Mus musculus / Homo sapiens?, UniProt Q06219;P19793 Q06219:1-598,P19793:1-462, Nurr1 P560A); experiment: as above; conditions: label: 32P (Klenow fill-in)
Experimental: as §1

[2] = biological target: Nurr1 wild type/RXR heterodimer (Mus musculus / Homo sapiens?, UniProt Q06219;P19793 Q06219:1-598,P19793:1-462); experiment: EMSA; heterodimer; 10 mM Tris pH 8.0, 40 mM KCl, poly(dI-dC), on ice; conditions: label: 32P (Klenow fill-in)
Experimental: as §1

[3] = biological target: T1, VP16-RXR (herpes simplex VP16 trans-activation domain followed by the complete coding sequence of human RXRα) (herpes simplex; human, UniProt P19793 1-462); experiment: mammalian two-hybrid assay, JEG3 cells
T1 construct: Two-hybrid prey, expressed in JEG3 cells; also called pCMX-VP16-RXR
T1 sequence: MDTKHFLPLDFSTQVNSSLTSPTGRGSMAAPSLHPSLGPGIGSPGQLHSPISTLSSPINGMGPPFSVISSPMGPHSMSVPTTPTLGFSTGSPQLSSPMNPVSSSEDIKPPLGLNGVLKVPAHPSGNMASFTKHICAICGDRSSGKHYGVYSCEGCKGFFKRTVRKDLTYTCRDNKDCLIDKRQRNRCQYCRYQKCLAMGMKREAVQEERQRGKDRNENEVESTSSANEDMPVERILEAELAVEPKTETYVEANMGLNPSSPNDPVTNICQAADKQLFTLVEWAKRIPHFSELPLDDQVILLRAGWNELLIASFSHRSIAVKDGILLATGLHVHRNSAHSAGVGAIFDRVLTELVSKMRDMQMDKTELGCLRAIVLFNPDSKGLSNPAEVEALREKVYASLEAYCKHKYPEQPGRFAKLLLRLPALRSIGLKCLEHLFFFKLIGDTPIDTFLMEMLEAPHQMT

Nurr1-RXR heterodimer = experiment: Nurr1-RXR heterodimer-mediated transactivation, βRE luciferase reporter in JEG3 cells; format: cell-based, human; conditions: βRE-tk luciferase reporter, RXR ligand SR11237 1 μM, effect of the mutation vs wild-type Nurr1
Experimental: The wild-type and mutated Nurr1 derivatives were transfected in JEG3 cells. The ability to transactivate was assessed using a luciferase reporter gene driven by three copies of the hRARβ2 promoter RARE (βRE) upstream of a thymidine kinase promoter.
The influence of the I-box mutations on Nurr1 transcriptional activity and on the ability to interact with RXR was examined as described by Perlmann and Jansson 1995, Zetterström et al. 1996, and Castro et al. 1999. Nurr1-RXR heterodimer-mediated transactivation was studied in human chorion carcinoma JEG3 cells. The cells were maintained in minimum essential medium supplemented with 10% fetal calf serum. Transfections were performed in quadruplicates in 24-well plates using the calcium phosphate precipitation method. The cells were plated 24 h prior to the transfection. Each well was transfected with 100 ng of the expression vector for the Nurr1 variants, 100 ng of a reporter plasmid, and 200 ng of βgalactoside plasmid that was used as an internal control for transfection efficiency. The luciferase reporter used was driven by three copies of the retinoid acid response element (RARE) of the human retinoid acid receptorβ2 (hRARβ2) gene promoter (βRE) upstream of the thymidine kinase promoter. 6-8 hours after transfection, the cells received fresh medium supplemented with 10% charcoal-stripped fetal calf,serum and RXR ligand (SR11237;1 μM). The cells were harvested 24 hours late and lysed. The cells extracts were assayed for luciferase and βgalactosidase activity. The ability of the Nurr1 mutants to interact with RXR was examined using the mammalian two-hybrid assay. The ligand-binding domains (amino acids 353-598; LBD) of both wild-type and mutated Nurr1 variants were cloned in frame with the yeast Gal4 DNA-binding domain (amino acids 1-147) in the pCMX-Gal4 expression vector (Perlmann and Jansson 1995). JEG3 cells were cotransfected with pCMX-Gal4-Nurr1-LBD derivatives and pCMX-VP16-RXR containing the herpes simplex VP16 trans-activation domain followed by the complete coding sequence of human RXRα. A reporter gene with four copies of the Gal4-binding sites was used.

[4] = test system: NGFI-B response element (NBRE) reporter; experiment: Monomeric reporter gene activation, NBRE reporter in 293 cells (full-length receptor); format: cell-based, human; conditions: three copies of NBRE reporter, effect of the mutation vs wild-type Nurr1
Experimental: The monomeric activity was examined in 293 cells. The full-length receptor derivatives were studied using a reporter gene regulated by three copies of the NGFI-B binding site (NBRE; FIG. A).
The ability of the mutants to activate reporter gene expression as monomers were studied in human embryonic kidney 293 cells. The cells were maintained in Dulbecco's modified Eagles medium with 10% fetal calf serum. Transfections were carried out as with JEG3 cells except that a reporter regulated by three copies of the NGFI-B (nerve growth factor inducible-B)response element (Wilson et al., 1991) (NBREs) was used. The transcriptional activities of the mutated ligand-binding domains were assessed as fusions to the Gal4 DNA-binding domain and a reporter gene with four copies of the Gal4-binding sites was used. All the transfection experiments were performed in quadruplicate dishes and each experiment has been repeated at least twice with essentially identical results. The results of a representative experiment are shown.

B1: betaRE probe (hRARbeta2 promoter RARE) (dsDNA)
DNA 1: AGCTTAAGGGGTTCACCGAAAGTTCACTCGCAT
DNA 2: ATGCGAGTGAACTTTCGGTGAACCCCTTAAGCT
Q: Does B1 bind (Nurr1 P560A)?
A: Result: binds

Q: Does B1 bind (Nurr1 KLL(554-556)AAA)?
A: Result: binds

Q: Does B1 bind (Nurr1 PEL(560-562)AAA)?
A: Result: binds

Q: Does B1 bind (Nurr1 GKL(557-559)AAA)?
A: Result: binds

Q: Does B1 bind [1]?
A: Result: no binding

Q: Does B1 bind (Nurr1 P560A + RXR)?
A: Result: no binding

Q: Does B1 bind [2]?
A: Result: binds

B2: Gal4 DNA-binding domain fused to Nurr1 ligand-binding domain (amino acids 353-598) KLL(554-556)AAA (other, yeast;mouse, UniProt P04386 1-147, looked up)
chain: MKLLSSIEQACDICRLKKLKCSKEKPKCAKCLKNNWECRYSPKTKRSPLTRAHLTEVESRLERLEQLFLLIFPREDLDMILKMDSLQDIKALLTGLFVQDNVNKDAVTDRLASVETDMPLTLRQHRISATSSSEESSNKGQRQLTVSQDPSPPSPPVSLISALVRAHVDSNPAMTSLDYSRFQANPDYQMSGDDTQHIQQFYDLLTGSMEIIRGWAEKIPGFADLPKADQDLLFESAFLELFVLRLAYRSNPVEGKLIFCNGVVLHRLQCVRGFGEWIDSIVEFSSNLQNMNIDISAFSCIAALAMVTERHGLKEPKRVEELQNKIVNCLKDHVTFNNGGLNRPNYLSAAAGKLPELRTLCTQGLQRIFYLKLEDLVPPPAIIDKLFLDTLPF
notes: range 1-147;range 353-598; Two-hybrid bait, expressed in JEG3 cells; also called pCMX-Gal4-Nurr1-LBD derivative KLL(554-556)AAA
Q: Does B2 bind [3]?
A: Result: no binding

B3: Gal4 DNA-binding domain fused to Nurr1 ligand-binding domain (amino acids 353-598) GKL(557-559)AAA (other, yeast;mouse, UniProt P04386 1-147, looked up)
chain: B2 chain with A349K, A350L, A351L, G352A, K353A, L354A
notes: range 1-147;range 353-598; Two-hybrid bait, expressed in JEG3 cells; also called pCMX-Gal4-Nurr1-LBD derivative GKL(557-559)AAA
Q: Does B3 bind [3]?
A: Result: no binding

B4: Gal4 DNA-binding domain fused to Nurr1 ligand-binding domain (amino acids 353-598) PEL(560-562)AAA (other, yeast;mouse, UniProt P04386 1-147, looked up)
chain: B2 chain with A349K, A350L, A351L, P355A, E356A, L357A
notes: range 1-147;range 353-598; Two-hybrid bait, expressed in JEG3 cells
Q: Does B4 bind [3]?
A: Result: no binding

B5: P560A: mouse Nurr1 I-box mutant, Pro560 substituted by alanine (protein)
chain: MPCVQAQYGSSPQGASPASQSYSYHSSGEYSSDFLTPEFVKFSMDLTNTEITATTSLPSFSTFMDNYSTGYDVKPPCLYQMPLSGQQSSIKVEDIQMHNYQQHSHLPPQSEEMMPHSGSVYYKPSSPPTPSTPSFQVQHSPMWDDPGSLHNFHQNYVATTHMIEQRKTPVSRLSLFSFKQSPPGTPVSSCQMRFDGPLHVPMNPEPAGSHHVVDGQTFAVPNPIRKPASMGFPGLQIGHASQLLDTQVPSPPSRGSPSNEGLCAVCGDNAACQHYGVRTCEGCKGFFKRTVQKNAKYVCLANKNCPVDKRRRNRCQYCRFQKCLAVGMVKEVVRTDSLKGRRGRLPSKPKSPQDPSPPSPPVSLISALVRAHVDSNPAMTSLDYSRFQANPDYQMSGDDTQHIQQFYDLLTGSMEIIRGWAEKIPGFADLPKADQDLLFESAFLELFVLRLAYRSNPVEGKLIFCNGVVLHRLQCVRGFGEWIDSIVEFSSNLQNMNIDISAFSCIAALAMVTERHGLKEPKRVEELQNKIVNCLKDHVTFNNGGLNRPNYLSKLLGKLAELRTLCTQGLQRIFYLKLEDLVPPPAIIDKLFLDTLPF
Q: B5 was tested. Which “ability of Nurr1 to promote RXR-mediated transactivation” value (Nurr1-RXR heterodimer) did it give?
A: Its value is “abolished”.

Q: And the “ability to activate reporter gene expression as monomers (monomeric activity)” value [4]?
A: The value was “no effect”.
